T1: FGF-5 (Homo sapiens, UniProt P12034)
T1 sequence (P12034 21-268): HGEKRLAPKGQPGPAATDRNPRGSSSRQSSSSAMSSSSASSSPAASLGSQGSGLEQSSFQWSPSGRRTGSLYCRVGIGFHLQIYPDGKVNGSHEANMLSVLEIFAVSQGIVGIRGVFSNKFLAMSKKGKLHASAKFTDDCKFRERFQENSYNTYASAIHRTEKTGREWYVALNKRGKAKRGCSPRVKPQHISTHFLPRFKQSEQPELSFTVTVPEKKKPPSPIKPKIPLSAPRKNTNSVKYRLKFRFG

T2: FGF-17 (Homo sapiens, UniProt O60258)
T2 sequence (O60258 23-216): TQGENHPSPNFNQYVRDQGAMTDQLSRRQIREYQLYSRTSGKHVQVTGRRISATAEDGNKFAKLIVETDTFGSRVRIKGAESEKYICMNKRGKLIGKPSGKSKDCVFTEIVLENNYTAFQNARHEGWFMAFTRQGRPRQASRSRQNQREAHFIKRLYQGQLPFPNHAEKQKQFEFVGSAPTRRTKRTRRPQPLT

T3: factor XIIIa (Homo sapiens, UniProt P00488)
T3 sequence (P00488 39-732 limits assumed): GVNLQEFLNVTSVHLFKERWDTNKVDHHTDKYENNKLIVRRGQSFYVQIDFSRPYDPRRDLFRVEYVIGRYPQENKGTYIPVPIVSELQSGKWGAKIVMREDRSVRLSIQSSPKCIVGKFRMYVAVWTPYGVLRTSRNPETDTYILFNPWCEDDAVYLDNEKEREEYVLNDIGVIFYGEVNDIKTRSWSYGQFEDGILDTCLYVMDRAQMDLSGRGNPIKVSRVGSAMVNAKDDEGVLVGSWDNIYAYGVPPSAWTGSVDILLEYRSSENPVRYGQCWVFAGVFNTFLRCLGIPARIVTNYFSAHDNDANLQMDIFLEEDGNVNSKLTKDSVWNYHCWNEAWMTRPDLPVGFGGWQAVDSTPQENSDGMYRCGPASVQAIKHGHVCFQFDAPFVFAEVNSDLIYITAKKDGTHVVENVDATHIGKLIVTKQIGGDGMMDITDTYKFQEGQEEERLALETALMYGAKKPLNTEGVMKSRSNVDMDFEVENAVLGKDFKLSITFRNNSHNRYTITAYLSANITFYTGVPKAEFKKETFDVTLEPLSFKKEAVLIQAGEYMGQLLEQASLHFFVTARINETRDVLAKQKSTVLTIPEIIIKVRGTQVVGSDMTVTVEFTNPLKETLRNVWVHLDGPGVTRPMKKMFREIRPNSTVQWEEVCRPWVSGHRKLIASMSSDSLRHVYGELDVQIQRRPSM


Assays:
FGF-5 = molecular target: T1, FGF-5; experiment: ELISA binding to coated FGF-5; conditions: 50 nM cytokine coated
Description: (§1) ELISA plates were coated with cytokines or BSA and further incubated with TNC III1-5 to analyze binding of TNC III1-5 to a wide variety of cytokines. […] Results are depicted in FIG. 3. Method: 50 nM of cytokine was coated for (1 hr, 37° C.). After blocking with 2% BSA (1 hr, RT). 100 nM TNC III1-5 was applied in PBST (0.05% tween, 0.1% bovine serum albumin (BSA)) (1 hr, RT). TNC III1-5 was detected with horseradish peroxidase (HRP)-anti-HIS in PBST (1 hr, RT) and developed with 3,3′,5,5′-tetramethylbenzidine (TMB), a soluble colorimetric HRP […]. Addition of sulfuric acid stop solution changes the color to yellow, enabling accurate measurement of the intensity at 450 nm using a spectrophotometer or plate reader. […] Heparin (4 μM) was added to TNC III1-5 to test the effect of blocking the heparin binding site of TNC III1-5, which has been defined as domain TNC III5 (Weber, Zimmermann, et al., 1995).
ELISA plates were coated with cytokines or BSA and further incubated with Fg β15-66 to analyze binding of […] to a wide variety of cytokines. […] Results are depicted in FIG. 4. Method: The methods were analogous to those used in Example 3.

skin wounds = experiment: Full-thickness back-skin wound healing in diabetic mice; type: in vivo; conditions: TG-PEG gels functionalized with TG-Fg β15-66 delivering FGF-2 and PlGF-2; 10 days
Description: Method: Full-thickness back-skin wounds were treated with combined FGF-2 and PlGF-2. Seven groups were tested: treatment (no ECM); fibrin only; fibrin containing cytokines; PEG only, PEG containing cytokines; PEG functionalized with TG-Fg β15-66, and PEG functionalized with TG-Fg β15-66 containing cytokines. After 10 days, wound closure and granulation tissue area were evaluated by histology. FIG. 20 details the results.

FGF-17 = molecular target: T2, FGF-17; experiment: ELISA binding to coated FGF-17; conditions: 50 nM cytokine coated
Description: as §1

factor XIIIa = molecular target: T3, factor XIIIa; experiment: Transglutaminase substrate activity (TAMRA, fibrinogen, PEG-lysine with factor XIIIa); type: biochemical; conditions: with and without factor XIIIa
Description: The activity of the transglutaminase substrate (TG: NQEQVSPL) (SEQ ID NO:10) of the engineered protein TG-TNC III1-5 was confirmed. FIG. 12 depicts results. Methods: A) The TG activity of TG-TNC III1-5 was tested by reaction with a fluorescent TAMRA molecule, containing lysines, with and without the presence of factor XIIIa, the TAMRA molecule, or TG-TNC III1-5. […] B) The TG activity of TG-TNC III1-5 was tested by reaction with fibrinogen, with and without the presence of factor XIIIa, fibrinogen, or TG-TNC III1-5. Fibrinogen or no protein was coated on an ELISA plate (1 hr, 37° C.), blocked with 2% BSA (1 hr, RT), reacted with or without TG-TNC III1-5 or factor XIIIa C) The TG activity of TG-TNC III1-5 was tested by reaction with PEG-lysines. A robotic spotter was used to bind TG-TNC III1-5 inside 450 μm spots (Gobaa, Hoehnel, et al., 2011), and an immuno-fluorescent stain was used to visualize the location and distribution of TG-TNC III1-5 onto the PEG. D) TG-TNC III1-5 and TG-FN III9*-10,TNC III1-5 (5 μM) were incorporated into a 2% TG-PEG gel. After 2 washed with PBS, 98% and 96% respectively of the fragments was bound into gels, which were sequentially stained with HRP-conjugated anti-HIS, and developed with TMB to read an absorbance at 450 nm.

SMC = experiment: Smooth muscle cell proliferation on modified TG-PEG gels with PDGF-BB; type: cell-based
Description: Method: Three different gels were fabricated, unmodified PEG, and PEG gels modified with TNC III1-5 or FN III9*-10,TNC III1-5 (5 μM). Unbound fragment was washed from the gels. Sequentially, gels were incubated for 1 hour at 37° C. with 100 μL DMEM without PDGF-BB or with PDGF-BB (1 ng per gel). For one set of gels, the media containing PDGF-BB was removed and gels were washed for 1 hour at RT. Cells were added to each gel and a proliferation assay with Alamar Blue was performed at 72 hours.

| Molecule | binding to FGF-5 (ELISA, signal above BSA background) (FGF-5) | skin-wound healing (skin wounds) | binding to FGF-17 (ELISA, signal above BSA background) (FGF-17) | activity of the transglutaminase substrate (TG: NQEQVSPL) (factor XIIIa) | SMC proliferation on TG-PEG gels (2%) (SMC; in the presence of PDGF-BB, 5 μM fragment, 72 hours) | SMC proliferation on modified gels vs unmodified gels (SMC; unbound PDGF-BB removed, p<0.05) |
| --- | --- | --- | --- | --- | --- | --- |
| Fg β15-66: heparin-binding domain of human fibrinogen β chain aa15-66 (SEQ ID NO:8); construct with TG substrate and His tag, SEQ ID NO:2 (protein, GS linker, transglutaminase substrate, the Fg beta15-66, with a Histidine tag) GSNQEQVSPLGHRPLDKKREEAPSLRPAPPPISGGGYRARPAKAAATQKKVERKAPDAGGCGHHHHHH | positive binding | enhanced skin-wound healing |  |  |  |  |
| TNC III1-5: recombinant tenascin C fibronectin type III repeats 1-5 (E622 to A1074) with transglutaminase substrate NQEQVSPL and 6×His tag, SEQ ID NO:1 (protein, Tenascin III signal sequence with polyhistidine tag) METDTLLLWVLLLWVPGSTGDAAQPAIEGRNQEQVSPLGGSEVSPPKDLVVTEVTEETVNLAWDNEMRVTEYLVVYTPTHEGGLEMQFRVPGDQTSTIIQELEPGVEYFIRVFAILENKKSIPVSARVATYLPAPEGLKFKSIKETSVEVEWDPLDIAFETWEIIFRNMNKEDEGEITKSLRRPETSYRQTGLAPGQEYEISLHIVKNNTRGPGLKRVTTTRLDAPSQIEVKDVTDTTALITWFKPLAEIDGIELTYGIKDVPGDRTTIDLTEDENQYSIGNLKPDTEYEVSLISRRGDMSSNPAKETFTTGLDAPRNLRRVSQTDNSITLEWRNGKAAIDSYRIKYAPISGGDHAEVDVPKSQQATTKTTLTGLRPGTEYGIGVSAVKEDKESNPATINAATELDTPKDLQVSETAETSLTLLWKTPLAKFDRYRLNYSLPTGQWVGVQLPRNTTSYVLRGLEPGQEYNVLLTAEKGRHKSKPARVKASTEQAGGGSHHHHHH |  |  | positive binding | confirmed | enhanced SMC proliferation | significantly increased proliferation |
